Measured values: the supplement of paper PMC10567573

B1: PRPH (parent)
chain: DEIEFLKKLHEEELRDLQVSVESQ
B2: CCDC6 (parent)
chain: TLFKKIQALQKEKETLAVNYEKEE

Variants of: B1
Assay: protein stability index of a GFP-peptide fusion (GPS, HEK-293T) (PSI 1-6); higher = more stable
Conditions: c terminus: a fixed tail appended
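Note: lentivirally expressed fusions sorted by FACS into six bins by GFP to DsRed ratio, PSI derived from sequencing read proportions per bin multiplied by bin number.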

Protein stability index: each site, then its substitutions
S20: R 5.1 | V 4.88 | L 4.2 | N 4.83 | Q 4.86 | W 4.45 | T 4.87 | F 3.97 | M 4.81 | K 4.75 | E 5.75 | D 4.54 | G 4.29 | I 4.27 | Y 4.45 | A 4.78 | H 4.91 | C 5.06 | P 4.96
L17: P 5.16 | C 4.92 | H 4.6 | Y 3.39 | W 4.8 | M 4.97 | E 4.98 | D 5.25 | A 5.15 | I 4.97 | G 5.21 | Q 5.15 | R 5.06 | S 4.9 | N 4.45 | K 4.81 | T 5.06 | F 4.69 | V 5.02
D16: Y 3.49 | W 3.15 | S 5.14 | T 4.72 | V 4.34 | R 3.96
Q18: D 5.27 | C 4.86 | E 4.81 | R 4.62 | L 3.89 | K 4.63 | T 5.36 | F 3.36 | I 4.4 | Y 4.21 | M 4.37 | H 4.69 | W 3.39 | G 5 | S 5.08 | P 5.3 | V 4.38 | N 5.11 | A 4.46
V19: Q 5.01 | S 4.6 | K 5 | F 4.39 | E 5 | G 5.15 | R 5.06 | N 4.87 | A 5.23 | P 4.93 | D 5.58 | M 4.76 | I 5.18 | T 5.19 | Y 4.56 | L 4.85 | H 5.27 | C 5.23 | W 5.12
V21: C 4.98 | Y 4.07 | T 4.96 | P 4.95 | F 4.43 | S 4.75 | K 5.06 | A 5.45 | I 4.13 | R 4.39 | N 5.29 | G 4.92 | L 4.71 | H 5.09 | D 5.43 | W 4.36 | Q 4.39 | E 5.81 | M 4.45
Q24: A 4.57 | G 4.48 | I 4.35 | M 4.64 | Y 3.64 | L 4.66 | T 4.76 | N 4.92 | K 4.65 | W 3.85 | D 4.46 | R 4.22 | F 3.91 | S 4.26 | H 4.52 | V 4.23 | E 4.57 | P 3.96 | C 3.37
S23: K 4.5 | M 3.96 | H 4.94 | L 4.54 | Y 4.71 | I 3.8 | F 4.36 | R 4.62 | C 4.55 | W 3.45 | P 4.71 | V 4.59 | Q 4.11 | G 5.13 | E 4.67 | N 5.04 | T 4.95 | A 4.04 | D 5.04
E22: Y 3.75 | S 4.74 | L 3.88 | A 4.47 | H 4.5 | D 4.99 | P 5.25 | Q 4.37 | W 3.29 | T 4.72 | R 4.3 | N 4.48 | G 4.3 | C 4.93 | K 4.69 | I 3.29 | F 3.38 | V 4.18 | M 4.27

Variants of: B2
Assay: as above
Conditions: c terminus: a fixed tail appended

Protein stability index of substitutions, site by site:
Q10: A 3.17 | C 3.17 | E 4.41 | F 2.2 | D 4.41
A8: E 4.05 | L 3.4 | K 3.88 | M 2.69 | T 3.49 | C 3.15 | D 3.51 | S 3.47 | H 3.25 | W 2.75 | P 4.25 | G 3.72 | N 3.75 | V 4.34 | Q 3.23 | Y 2.75 | F 3.54 | I 3.4 | R 3.38
Q7: A 2.85 | H 3.18 | P 4.7 | Y 2.55 | N 4.02 | M 2.73 | K 3.31 | I 2.6 | D 4.38 | W 1.99 | L 2.71 | E 3.57 | R 2.98 | V 2.7 | T 3.54 | S 3.65 | C 2.73 | G 3.51 | F 2.3
F3: A 4.68 | C 3.62 | D 5.28 | L 3.08 | Q 4.78 | H 4.9 | E 5.42 | N 4.59 | P 5.44 | V 3.76 | K 4.78 | Y 3.67 | S 4.62 | G 5.23 | W 2.26 | T 5.1 | I 3.51 | R 4.38 | M 3.41
K5: C 2.52 | A 2.43 | N 3.78 | R 2.75 | D 4.85 | Q 3.36 | V 1.76 | L 2.27 | T 2.95 | H 2.88 | E 4.27 | S 3.47 | W 3.67 | Y 2.15 | F 1.61 | I 1.79 | P 4.74 | G 4.19 | M 2.22
K4: Y 2.58 | A 3.01 | F 3.44 | H 3.88 | V 3.52 | N 3.68 | I 2.76 | R 3.35 | Q 3.56 | T 4.27 | P 4.83 | D 4.37 | W 2.74 | C 2.73 | G 3.75 | L 3.05 | E 3.33 | S 3.82 | M 2.8
T1: K 3.06 | A 3.85 | F 2.64 | N 4.12 | L 2.38 | W 1.88 | G 3.73 | P 3.71 | I 2.69 | M 2.51 | V 3.12 | R 3.04 | S 2.92 | D 4.01 | Y 3.01 | C 3.34 | E 3.67 | H 3.48 | Q 2.84
L9: N 4.55 | P 5.08 | E 4.37 | T 4.6 | Y 3.23 | K 4.35 | S 4.05 | R 4.25 | W 3.5 | G 3.92 | I 3.57 | C 4.33 | D 4.67 | A 3.92 | F 3.46 | V 4.22 | M 2.74 | Q 4.48 | H 3.88
I6: S 4.81 | D 5.34 | T 4.75 | G 5.06 | K 4.92 | V 3.85 | M 4.32 | A 4.59 | H 4.17 | E 5.39 | N 4.36 | Y 3.93 | Q 4.28 | W 3.4 | F 3.99 | C 4.44 | R 4.79 | L 3.59 | P 4.78
L2: F 4.25 | G 5.25 | T 5.1 | E 5.56 | M 4.28 | C 4.55 | A 4.08 | Q 4.91 | S 4.83 | N 5.26 | H 4.96 | P 5.29 | R 5.13 | I 3.4 | D 5.26 | V 3.82 | Y 3.74 | K 5.2 | W 3.68
